Reference: patent US20240066131A1 (Protagonist Therapeutics, Inc., priority 2020, published 2024)
Starred links: 1 amine or outer side, 2 acyl side, 3 side chain; linkers in the order of their positions; H or OH if unused. Positions of bridges follow the written chain, without caps; N, C: chain ends. Non-standard residues stand in square brackets, D forms with d. Residues, ends and D or L forms follow the SMILES beside them. Groups on a side chain read outwards from the residue. No end group written: not given here. *: point of attachment. bhGly(phenylbutyl) = 3-((4-phenylbutyl)amino)propanoic acid, O=C(CCN(CCCCc1ccccc1)[*:1])[*:2]; Carnitine = carnitine group on the Lys side chain, C[N+](C)(C)C[C@H](O)CC(=O)*; Dip = N[C@H](C(=O)O)C(c1ccccc1)c1ccccc1; γGlu = O=C(O)[C@H](CCC(=O)[*:2])N[*:1]; Palmitoyl = CCCCCCCCCCCCCCCC(=O)*; β3hF = N[C@H](CC(=O)O)Cc1ccccc1; DMG_N_2ae = not defined here; NMeK = CN[C@@H](CCCCN)C(=O)O; Isovaleryl = CC(C)CC(=O)*; Orn = NCCC[C@H](N)C(=O)O; Dap = NC[C@H](N)C(=O)O; Ahx = NCCCCCC(=O)O

T1: ferroportin (Homo sapiens, UniProt Q9NP59)
T1 sequence (Q9NP59 1-571): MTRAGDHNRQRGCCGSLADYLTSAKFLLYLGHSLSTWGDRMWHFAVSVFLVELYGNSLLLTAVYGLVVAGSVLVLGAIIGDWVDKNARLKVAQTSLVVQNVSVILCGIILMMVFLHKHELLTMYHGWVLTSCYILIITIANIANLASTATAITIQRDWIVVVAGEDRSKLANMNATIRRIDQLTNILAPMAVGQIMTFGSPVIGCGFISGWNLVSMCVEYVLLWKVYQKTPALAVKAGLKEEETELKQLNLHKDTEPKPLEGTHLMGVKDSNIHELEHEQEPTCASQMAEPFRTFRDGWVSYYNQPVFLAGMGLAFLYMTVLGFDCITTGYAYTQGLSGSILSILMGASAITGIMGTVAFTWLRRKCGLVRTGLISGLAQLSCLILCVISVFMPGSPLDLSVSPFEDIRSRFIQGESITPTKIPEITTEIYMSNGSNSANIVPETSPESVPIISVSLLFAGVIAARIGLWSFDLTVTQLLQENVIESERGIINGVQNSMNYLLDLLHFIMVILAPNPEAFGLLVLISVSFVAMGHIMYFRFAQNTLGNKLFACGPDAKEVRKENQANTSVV

T2: human ferroportin (SLC40A1) fused in frame with GFP, stably expressed in HEK293 cells (human, UniProt Q9NP59 1-571)
T2 sequence (looked up): T1 sequence (Q9NP59 1-571)

B1: [Isovaleric Acid]-E-T-H-[Dpa]-P-[DMG_N_2ae]-[N-MeLys(Ahx_Palm)]-[bhPhe]-NH2 (peptide)
peptide: Isovaleryl-ETH[Dip]P[DMG_N_2ae][NMeK]([Ahx-Palmitoyl])[β3hF]-NH2
modifications: reading uncertain
B2: [Isovaleric Acid]-[Orn]-T-H-[Dpa]-P-A-I-[N-MeLys(Ahx_Palm)]-[bhGly(phenylbutyl)] (peptide)
peptide: Isovaleryl-[Orn]TH[Dip]PAI[NMeK]([Ahx-Palmitoyl])[bhGly(phenylbutyl)]
B3: [Isovaleric Acid]-K-T-H-[Dpa]-P-A-I-E-[bhPhe]-[Lys(Ahx_Palm)]-[Lys(Carnitine)]-NH2 (peptide)
peptide: Isovaleryl-KTH[Dip]PAIE[β3hF]K([Ahx-Palmitoyl])K(Carnitine)-NH2
SMILES: CCCCCCCCCCCCCCCC(=O)NCCCCCC(=O)NCCCC[C@H](NC(=O)C[C@H](Cc1ccccc1)NC(=O)[C@H](CCC(=O)O)NC(=O)[C@@H](NC(=O)[C@H](C)NC(=O)[C@@H]1CCCN1C(=O)[C@@H](NC(=O)[C@H](Cc1c[nH]cn1)NC(=O)[C@@H](NC(=O)[C@H](CCCCN)NC(=O)CC(C)C)[C@@H](C)O)C(c1ccccc1)c1ccccc1)[C@@H](C)CC)C(=O)N[C@@H](CCCCNC(=O)C[C@@H](O)C[N+](C)(C)C)C(N)=O
B4: [Isovaleric Acid]-[Dap]-T-H-[Dpa]-P-A-I-[N-MeLys(Ahx_Palm)]-[bhGly(phenylbutyl)] (peptide)
peptide: Isovaleryl-[Dap]TH[Dip]PAI[NMeK]([Ahx-Palmitoyl])[bhGly(phenylbutyl)]
B5: [Isovaleric Acid]-E-T-H-[Dpa]-P-[DMG_N_2ae]-[(D)Lys]-[bhPhe]-[Lys(Ahx_Palm)]-NH2 (peptide)
peptide: XETHXPXXXX
modifications: N-term Isovaleric Acid; Dpa4; DMG_N_2ae6; (D)Lys7; bhPhe8; Lys(Ahx_Palm)9; C-term NH2
B6: [Isovaleric Acid]-K-T-H-[Dpa]-P-[DMG_N_2ae]-E-[bhPhe]-[Lys(Ahx_Palm)]-NH2 (peptide)
peptide: Isovaleryl-KTH[Dip]P[DMG_N_2ae]E[β3hF]K([Ahx-Palmitoyl])-NH2
modifications: reading uncertain

Target: T1, ferroportin
Experiment: T47D cell-based ferroportin internalization assay in presence of mouse serum albumin (MSA), AF647 detection peptide, flow cytometry
Design: a human breast carcinoma adherent cell line which endogenously expresses ferroportin; host or cells: T47D
Conditions: second Table 6D, T47D/MSA data; with mouse serum albumin
Protocol: The potency of the peptides in causing ferroportin internalization was evaluated in a T47D cell-based assay. […] In this internalization assay, the potency of the test peptides was evaluated in presence of serum albumin which is the main protein component in the blood. T47D cells were maintained in RPMI media (containing required amount of fetal bovine serum) and regularly sub-cultured. […] The test peptide dilution series were allowed to incubate at room temperature for 30 min. Then the media was aspirated from the 96-well cell plate and test peptide dilution series were added. After 1 hr incubation, the media with test peptides was aspirated out and A1F647-conjugated detection peptide was added at fixed concentration of 200 nM. […] The cells were washed again after a 2 hr incubation in preparation for flow cytometry analysis. The Median Fluorescence Intensity (MFI) of the AF647-positive population was measured (after removing dead cells and non-singlets from the analysis). The MFI values were used to generate a dose-response curve and obtain IC50 potencies for the test peptides. The IC50 potencies were calculated by using 4-parameter non-linear fitting function in Graphpad Prism (Table 6D).

Row | Molecule | IC50 [nM]
1 | CCCCCCCCCCCCCCCC(=O)N[C@@H](CCC(=O)NCCCC[C@H](NC(=O)[C@@H](NC(=O)[C@H](C)NC(=O)[C@@H]1CCCN1C(=O)[C@@H](NC(=O)[C@H](Cc1c[nH]cn1)NC(=O)[C@@H](NC(=O)[C@H](CCC(=O)O)NC(=O)CC(C)C)[C@@H](C)O)C(c1ccccc1)c1ccccc1)[C@@H](C)CC)C(=O)N[C@H](CC(=O)N[C@H](CCCCN)C(N)=O)Cc1ccccc1)C(=O)O [compound 131] (Isovaleryl-ETH[Dip]PAIK([γGlu-Palmitoyl])[β3hF][dK]-NH2) | 13.3
2 | CCCCCCCCCCCCCCCC(=O)NCCCCCC(=O)NCCCC[C@H](NC(=O)[C@@H](NC(=O)[C@H](C)NC(=O)[C@@H]1CCCN1C(=O)[C@H](Cc1ccccc1)NC(=O)[C@H](Cc1c[nH]cn1)NC(=O)[C@@H](NC(=O)[C@H](CCC(=O)O)NC(=O)CC(C)C)[C@@H](C)O)[C@@H](C)CC)C(=O)N[C@@H](Cc1ccccc1)C(=O)N[C@@H](CCC(=O)O)C(=O)N1CCC[C@H]1C(=O)N[C@@H](CCCNC(=N)N)C(=O)N[C@@H](CO)C(=O)N[C@@H](CCCCN)C(=O)NCC(=O)N[C@@H](C)C(=O)N[C@@H](CCCCN)C(N)=O [compound 81] (Isovaleryl-ETHFPAIK([Ahx-Palmitoyl])FEPRSKGAK-NH2) | 11.4
3 | CCCCCCCCCCCCCCCC(=O)NCCCCCC(=O)NCCCC[C@H](NC(=O)[C@@H]1CCCCNC(=O)CC[C@H](NC(=O)CC(C)C)C(=O)N[C@@H]([C@@H](C)O)C(=O)N[C@@H](Cc2c[nH]cn2)C(=O)N[C@@H](C(c2ccccc2)c2ccccc2)C(=O)N2CCC[C@H]2C(=O)N[C@@H](C)C(=O)N[C@@H]([C@@H](C)CC)C(=O)N1)C(N)=O [compound 314] (Isovaleryl-ETH[Dip]PAIKK([Ahx-Palmitoyl])-NH2; lactam 1-8) | 10.6
4 | CCCCCCCCCCCCCCCC(=O)NCCCCCC(=O)NCCCC[C@H](NC(=O)C[C@H](Cc1ccccc1)NC(=O)[C@H]1CCCCNC(=O)CC[C@H](NC(=O)CC(C)C)C(=O)N[C@@H]([C@@H](C)O)C(=O)N[C@@H](Cc2c[nH]cn2)C(=O)N[C@@H](C(c2ccccc2)c2ccccc2)C(=O)N2CCC[C@H]2C(=O)N[C@@H](C)C(=O)N[C@@H]([C@@H](C)CC)C(=O)N1)C(=O)N[C@@H](CCCNC(=N)N)C(N)=O [compound 56] (Isovaleryl-ETH[Dip]PAI[dK][β3hF]K([Ahx-Palmitoyl])R-NH2; lactam 1-8) | 8.9

Target: T2, human ferroportin (SLC40A1) fused in …
Experiment: cell-based or functional assay
Conditions: not given

Row | Molecule | IC50: FPN internalisation [nM]
5 | B1 | 10.7
6 | B2 | 201
7 | B3 | 10.7
8 | B4 | 597
9 | B5 | 35.6
10 | B6 | 13.6
